# Experimental data taken from the supplement of paper PMC11316812.
# ± gives the standard deviation of the averaged measurements.
# Assays:
# [1] = tested on: MCF7; assay: percentage of EdU-negative (G0-arrested) nuclei per well, 72 h; higher = more G0 arrest; conditions: reference: sequence is the full UniProt precursor, the tested protein was the secreted form or ectodomain
# [2] = tested on: hTERT-HMEC; assay: as above; conditions: reference: sequence is the full UniProt precursor, the tested protein was the secreted form or ectodomain
# [3] = protein concentration 0.0257143 µM
# [4] = protein concentration 0.257143 µM
# [5] = protein concentration 0.0225 µM
# [6] = protein concentration 0.027515 µM
# [7] = protein concentration 0.27515 µM
# [8] = protein concentration 0.0357143 µM
# [9] = protein concentration 0.357143 µM
# [10] = protein concentration 0.03125 µM
# [11] = protein concentration 0.3125 µM
# 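Further: secreted proteins added to cultured cells, EdU pulse at the end, nuclei found by Hoechst imaging, EdU status from nuclear versus surrounding ring intensity ratio, PBS as neutral control.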
sequence,measurement,setting,value
MAKDFQDIQQLSSEENDHPFHQGEGPGTRRLNPRRGNPFLKGPPPAQPLAQRLCSMVCFSLLALSFNILLLVVICVTGSQSEGHGGAQLQAELRSLKEAFSNFSSSTLTEVQAISTHGGSVGDKITSLGAKLEKQQQDLKADHDALLFHLKHFPVDLRFVACQMELLHSNGSQRTCCPVNWVEHQGSCYWFSHSGKAWAEAEKYCQLENAHLVVINSWEEQKFIVQHTNPFNTWIGLTDSDGSWKWVDGTDYRHNYKNWAVTQPDNWHGHELGGSEDCVEVQPDGRWNDDFCLQVYRWVCEKRRNATGEVA,percentage of EdU-negative,[1]; [3],27 ± 1.8%
same,percentage of EdU-negative,[1]; [4],25.3 ± 2.7%
same,percentage of EdU-negative,[2]; [3],4.62 ± 0.061%
same,percentage of EdU-negative,[2]; [4],5.93 ± 0.22%
MRIMLLFTAILAFSLAQSFGAVCKEPQEEVVPGGGRSKRDPDLYQLLQRLFKSHSSLEGLLKALSQASTDPKESTSPEKRDMHDFFVGLMGKRSVQPDSPTDVNQENVPSFGILKYPPRAE [Q9UHF0],percentage of EdU-negative,[1]; [5],22.8 ± 2.6%
same,percentage of EdU-negative,[1]; protein concentration 0.225 µM,25.6 ± 1.7%
same,percentage of EdU-negative,[2]; [5],5.911 ± 0.0092%
same,percentage of EdU-negative,[2]; protein concentration 0.225 µM,5.91 ± 0.065%
MVLAQGLLSMALLALCWERSLAGAEETIPLQTLRCYNDYTSHITCRWADTQDAQRLVNVTLIRRVNEDLLEPVSCDLSDDMPWSACPHPRCVPRRCVIPCQSFVVTDVDYFSFQPDRPLGTRLTVTLTQHVQPPEPRDLQISTDQDHFLLTWSVALGSPQSHWLSPGDLEFEVVYKRLQDSWEDAAILLSNTSQATLGPEHLMPSSTYVARVRTRLAPGSRLSGRPSKWSPEVCWDSQPGDEAQPQNLECFFDGAAVLSCSWEVRKEVASSVSFGLFYKPSPDAGEEECSPVLREGLGSLHTRHHCQIPVPDPATHGQYIVSVQPRRAEKHIKSSVNIQMAPPSLNVTKDGDSYSLRWETMKMRYEHIDHTFEIQYRKDTATWKDSKTETLQNAHSMALPALEPSTRYWARVRVRTSRTGYNGIWSEWSEARSWDTESVLPMWVLALIVIFLTIAVLLALRFCGIYGYRLRRKWEEKIPNPSKSHLFQNGSAELWPPGSMSAFTSGSPPHQGPWGSRFPELEGVFPVGFGDSEVSPLTIEDPKHVCDPPSGPDTTPAASDLPTEQPPSPQPGPPAASHTPEKQASSFDFNGPYLGPPHSRSLPDILGQPEPPQEGGSQKSPPPGSLEYLCLPAGGQVQLVPLAQAMGPGQAVEVERRPSQGAAGSPSLESGGGPAPPALGPRVGGQDQKDSPVAIPMSSGDTEDPGVASGYVSSADLVFTPNSGASSVSLVPSLGLPSDQTPSLCPGLASGPPGAPGPVKSGFEGYVELPPIEGRSPRSPRNNPVPPEAKSPVLNPGERPADVSPTSPQPEGLLVLQQVGDYCFLPGLGPGPLSLRSKPSSPGPGPEIKNLDQAFQVKKPPGQAVPQVPVIQLFKALKQQDYLSLPPWEVNKPGEVC,percentage of EdU-negative,[1]; [5],23.9 ± 0.89%
same,percentage of EdU-negative,[1]; protein concentration 0.225 µM,26.4 ± 2.5%
same,percentage of EdU-negative,[2]; [5],4.92 ± 0.4%
same,percentage of EdU-negative,[2]; protein concentration 0.225 µM,8.11 ± 1.6%
MQALVLLLCIGALLGHSSCQNPASPPEEGSPDPDSTGALVEEEDPFFKVPVNKLAAAVSNFGYDLYRVRSSTSPTTNVLLSPLSVATALSALSLGAEQRTESIIHRALYYDLISSPDIHGTYKELLDTVTAPQKNLKSASRIVFEKKLRIKSSFVAPLEKSYGTRPRVLTGNPRLDLQEINNWVQAQMKGKLARSTKEIPDEISILLLGVAHFKGQWVTKFDSRKTSLEDFYLDEERTVRVPMMSDPKAVLRYGLDSDLSCKIAQLPLTGSMSIIFFLPLKVTQNLTLIEESLTSEFIHDIDRELKTVQAVLTVPKLKLSYEGEVTKSLQEMKLQSLFDSPDFSKITGKPIKLTQVEHRAGFEWNEDGAGTTPSPGLQPAHLTFPLDYHLNQPFIFVLRDTDTGALLFIGKILDPRGP,percentage of EdU-negative,[1]; [6],26.5 ± 1.4%
same,percentage of EdU-negative,[1]; [7],28 ± 0.47%
same,percentage of EdU-negative,[2]; [6],5.35 ± 0.62%
same,percentage of EdU-negative,[2]; [7],9.19 ± 1.1%
MGPLSAPPCTEHIKWKGLLVTASLLNFWNLPTTAQVTIEAQPPKVSEGKDVLLLVHNLPQNLTGYIWYKGQIRDLYHYITSYVVDGQIIIYGPAYSGRETAYSNASLLIQNVTREDAGSYTLHIIKRGDGTRGVTGYFTFTLYLETPKPSISSSNLNPREAMETVILTCDPETPDTSYQWWMNGQSLPMTHRFQLSETNRTLFLFGVTKYTAGPYECEIRNSGSASRSDPVTLNLLHGPDLPRIHPSYTNYRSGDNLYLSCFANSNPPAQYSWTINGKFQQSGQNLFIPQITTKHSGLYVCSVRNSATGEESSTSLTVKVSASTRIGLLPLLNPT,percentage of EdU-negative,[1]; [8],24.9 ± 2.1%
same,percentage of EdU-negative,[1]; [9],25.4 ± 0.54%
same,percentage of EdU-negative,[2]; [8],4.65 ± 0.56%
same,percentage of EdU-negative,[2]; [9],5.32 ± 1.1%
MVLLWLTLLLIALPCLLQTKEDPNPPITNLRMKAKAQQLTWDLNRNVTDIECVKDADYSMPAVNNSYCQFGAISLCEVTNYTVRVANPPFSTWILFPENSGKPWAGAENLTCWIHDVDFLSCSWAVGPGAPADVQYDLYLNVANRRQQYECLHYKTDAQGTRIGCRFDDISRLSSGSQSSHILVRGRSAAFGIPCTDKFVVFSQIEILTPPNMTAKCNKTHSFMHWKMRSHFNRKFRYELQIQKRMQPVITEQVRDRTSFQLLNPGTYTVQIRARERVYEFLSAWSTPQRFECDQEEGANTRAWRTSLLIALGTLLALVCVFVICRRYLVMQRLFPRIPHMKDPIGDSFQNDKLVVWEAGKAGLEECLVTEVQVVQKT,percentage of EdU-negative,[1]; [10],26.3 ± 2.9%
same,percentage of EdU-negative,[1]; [11],30.4 ± 0.99%
same,percentage of EdU-negative,[2]; [10],4.403 ± 0.019%
same,percentage of EdU-negative,[2]; [11],5.4 ± 0.13%
MMPKHCFLGFLISFFLTGVAGTQSTHESLKPQRVQFQSRNFHNILQWQPGRALTGNSSVYFVQYKIMFSCSMKSSHQKPSGCWQHISCNFPGCRTLAKYGQRQWKNKEDCWGTQELSCDLTSETSDIQEPYYGRVRAASAGSYSEWSMTPRFTPWWETKIDPPVMNITQVNGSLLVILHAPNLPYRYQKEKNVSIEDYYELLYRVFIINNSLEKEQKVYEGAHRAVEIEALTPHSSYCVVAEIYQPMLDRRSQRSEERCVEIP [Q969J5],percentage of EdU-negative,[1]; [5],24.1 ± 0.85%
same,percentage of EdU-negative,[1]; protein concentration 0.225 µM,27.2 ± 3%
same,percentage of EdU-negative,[2]; [5],4.89 ± 0.64%
same,percentage of EdU-negative,[2]; protein concentration 0.225 µM,5.48 ± 0.17%
